{"source": "paper PMC4650670", "about": "(Scientific Reports, 2015)", "target": "human cytoskeletal actin, filamentous (F-actin; β- and γ-actins) (human, UniProt P60709 1-375; P63261 1-375)", "test": "ITC", "details": "both partners purified"}
{"binder": "VopV_(rep1) (residues 361-428 of the type III secretion effector VopV) (domain or fragment) WPEVKPAHRLITTSGNAKIDGNPGYRNARVDVDGQTVGYTRNERGGSQPQSSGVHTLQGSQQPSVEPS", "values": [{"measurement": "Kd", "value": 54.4, "unit": "nM"}]}
